Laboratory results published in PMC4519933, “Crystal Structure of a Hidden Protein, YcaC, a Putative Cysteine Hydrolase from Pseudomonas aeruginosa, with and without an Acrylamide Adduct” (International Journal of Molecular Sciences, 2015).

Key:
[1] = biological target: the molecule itself; test: crystal structure; crystal form I, space group C2, 2.34 Å; 9 mg/mL SeMet PlcHR2 preparation in 50 mM NaCl, 50 mM Tris-HCl pH 7.4, 0.1 mM TCEP; reservoir 26% PEG 3350, 400 mM (NH4)2SO4, 70 mM bis-Tris-HCl pH 6.75, 2,5-hexanediol additive; eight chains in the asymmetric unit
[2] = biological target: the molecule itself; test: crystal structure; crystal form II, space group P21, 2.56 Å; 5.3 mg/mL SeMet PlcHR2 preparation in 50 mM NaCl, 5 mM MgCl2, 50 mM Tris-HCl pH 7.4, 0.1 mM TCEP; reservoir 20% PEG 3350, 200 mM Na malonate, 100 mM MES-NaOH pH 6.75; eight chains in the asymmetric unit

B1: Pseudomonas aeruginosa YcaC, crystal form I (Cys118 linked to propanamide) (enzyme, P. aeruginosa (endogenous in PADD1976), UniProt Q9I4D6 2-205, looked up)
chain: SFTYKRLDKNDAAVLFVDHQAGLLSLVRDFSPDEFKNNVLALADIARFFNLPTILTTSFEDGPNGPLVPELKEMFPQAPYIARPGNINAWDNEDFVKAVKATGKKQLIIAGVVTDVCVAFPTLSALEEGFDVFVVTDASGTFNPVVRDAAWARMTAAGAQLMNWFSVGCELHRDWRNDIEGFGAILGGHLPAYANLIQSFGTKK
modifications: Cys118 linked to a propanamide (acrylamide adduct); bacteria grown in minimal media with L-selenomethionine (SeMet)
notes: monomer 205 residues, 22.5 kDa; the N-formylmethionine appears to have been cleaved off; residues 204 and 205 disordered in the crystal; Not cloned: crystallised as a contaminant of a SeMet PlcHR2 preparation; identity found by molecular replacement and side chain densities; also called Pa YcaC; PA1202
stoichiometry N [1]: 8

B2: Pseudomonas aeruginosa YcaC, crystal form II (Cys118 as S-mercaptocysteine) (enzyme, P. aeruginosa (endogenous in PADD1976), UniProt Q9I4D6 2-205, looked up)
chain: B1 chain
modifications: Cys118 covalently modified to S-mercaptocysteine; bacteria grown in minimal media with L-selenomethionine (SeMet)
notes: monomer 205 residues, 22.5 kDa; the N-formylmethionine appears to have been cleaved off; residues 204 and 205 disordered in the crystal; Same protein and preparation route as m1; differs in the modification of Cys118 seen in the crystal; also called Pa YcaC; PA1202
stoichiometry N [2]: 8
